Molecular target: T1, C3b (purified; species not stated in Examples 12, 13, 19, 20) (Homo sapiens (Human), UniProt P01024 23-667; P01024 749-1663, The two chains are disulfide-linked. The internal thioester of the alpha' chain (Cys-Gln) is broken in C3b. Natural glycosylation is present. The protein carries an Alexa488 label in the …)
T1 construct: also called complement C3b; C3b-A488
Assay: SPR (Biacore 2000), C3b amine-coupled to a CM5 chip, CRIg-Fc injected

B1: murine CRIg-Fc fusion protein (Fc fusion)
chain: HPTLKTPESVTGTWKGDVKIQCIYDPLRGYRQVLVKWLVRHGSDSVTIFLRDSTGDHIQQAKYRGRLKVSHKVPGDVSLQINTLQMDDRNHYTCEVTWQTPDGNQVIRDKIIELRVRKYNPPRINTEAPTTLHSSLEATTIMSSTSDLTTNGTGKLEETIAGSGRNLPIFAIIFIISLCCI
notes: Produced in CHO cells; also called muCRIg-Fc; MuCRIg Fc; not shown: hinge, CH2 and CH3 domains of murine IgG1
  Kd: 250 nM
